# From patent US5185323A, “Suppression of megakaryocytopoiesis employing platelet factor 4 antimaturation factor” (Temple University, priority 1988, dated 1993)
# B1: platelet factor 4 (protein, UniProt P02776 32-101, looked up)
# Platelet factor 4: EAEEDGDLQCLCVKTTSQVRPRHITSLEVIKAGPHCPTAQLIATLKNGRKICLDLQAPLYKKIIKKLLES
# notes: Megakaryocyte/platelet-specific α-granule protein purified from outdated human platelets by heparin-agarose chromatography, >95% pure
# Assays:
# Assay type in all cases: cell-based
# [1] = tested on: human megakaryocyte progenitor cells; test: Megakaryocyte colony formation in plasma clot culture, MNC depleted of adherent monocyte-macrophages and T lymphocytes; details: PF4 25 μg/ml; four experiments (FIG. 3)
# Description: FIG. 3 graphically illustrates the effect of highly purified platelet factor 4 (PF4) on normal human megakaryocyte colony formation in vitro in the absence of accessory marrow immunocytes. Isolated bone marrow mononuclear cells (MNC) were depleted of adherent monocyte-macrophages and lymphocytes and treated as detailed in the Examples. Each line represents the result of a single experiment performed in quadruplicate culture plates. p values in comparison to control are indicated for each experiment.
# (§1) Megakaryocyte colonies were cloned in plasma clot cultures as previously described (e.g., Blood 61: 384-9, 1983). The cell population cultured consisted of either unseparated high density marrow mononuclear cells (MNC), or MNC depleted of adherent monocytemacrophages (MO) and T lymphocytes using methods previously reported (e.g., J. Immunol. 2915-2925, 1987). To provide essential growth factors, all cultures were supplemented with normal human AB serum (30% v/v) derived from the platelet-poor plasma of a single donor.
# Megakaryocyte colonies were enumerated by indirect immunofluorescence assay utilizing a rabbit anti-human platelet glycoprotein antiserum as a megakaryocyte probe (ibid.). […] A cluster of three or more intensely fluorescent cells was counted as one colony. Unless otherwise stated, all data are reported as the mean± S.D. of colonies enumerated. […]
# [2] = tested on: human megakaryocyte progenitor cells; test: Megakaryocyte colony formation in co-culture with autologous T lymphocyte subsets
# Description: as §1
# Megakaryocyte colonies were enumerated by indirect immunofluorescence assay utilizing a rabbit anti-human platelet glycoprotein antiserum as a megakaryocyte probe (ibid.). […] A cluster of three or more intensely fluorescent cells was counted as one colony. Unless otherwise stated, all data are reported as the mean± S.D. of colonies enumerated.
# Since the majority of marrow T lymphocytes are of the suppressor type, and PF4 is described in the prior art as inactivating these cells, the results obtained in Examples IA and IB were unexpected. In fact, it was anticipated that colony formation might be increased because of unopposed T helper activity. Putative progenitor cell-T cell-PF4 interactions were accordingly studied. Control target cells, depleted of adherent monocytes and T lymphocytes were cloned in plasma clots under standard conditions (Table 3). Aliquots of these target cells were also cloned in the presence of either CD4^+ helper, or CD8^+ suppressor T cells alone, or T effector cells plus PF4 at two different concentrations, 2.5 and 25 μg/ml.
# [3] = tested on: normal human megakaryocyte progenitor cells; test: Megakaryocyte colony formation in plasma clot culture, unseparated marrow MNC (proliferation assay); details: control ~11 colonies
# Experimental: FIG. 1 graphically illustrates the effect of highly purified platelet factor 4 (PF4) on clonogenicity of normal human megakaryocyte progenitor cells in plasma clot culture. Bone marrow mononuclear cells (MNC) were isolated by density gradient sedimentation and then suspended in the appropriate culture medium, to which was added PF4 in the amounts indicated. The cell suspensions were plated, and cultured for twelve days at 37° C. in a humidified environment containing 5% CO2, and resulting megakaryocyte colonies were then enumerated in situ with an indirect immunofluorescence assay using a polyspecific antiplatelet glycoprotein antiserum as probe. Aggregate results (mean±S.D.) of five separate experiments are shown. Numbers at top of bars indicate p value in comparison to control (CONT.).
# Megakaryocyte colonies were cloned in plasma clot cultures as previously described (e.g., Blood 61: 384-9, 1983). […]
# Megakaryocyte colonies were enumerated by indirect immunofluorescence assay utilizing a rabbit anti-human platelet glycoprotein antiserum as a megakaryocyte probe (ibid.). […] A cluster of three or more intensely fluorescent cells was counted as one colony. […]
# To determine if PF4 could modify megakaryocyte colony formation in vitro, a screen assay was performed by adding various amounts of pure protein to unseparated marrow MNC. […] In the presence of 2.5 μg/ml of PF4, ~7 colonies were counted. […]
# [4] = tested on: normal human erythroid colony forming units (CFU-E); test: Erythroid colony formation (CFU-E) in plasma clot culture (specificity assay); details: concentrations of PF4 which consistently inhibited megakaryocyte colony formation; FIG. 4
# Description: FIG. 4 graphically illustrates the effect of highly purified platelet factor 4 (PF4) on clonogenicity of normal human erythroid colony forming units (CFU-E) in plasma clot culture in the absence of accessory marrow immunocytes. Isolated bone marrow mononuclear cells (MNC) were depleted of adherent monocyte-macrophages and lymphocytes, as detailed in the Examples. After seven days in culture, plates were harvested and fixed and CFU-E detected by benzidine staining. Results of three separate experiments, each performed in quadruplicate culture plates, are shown. The effect of purified protein on inhibition of erythroid colony formation was tested.
molecule,measurement,setting,value
B1,effect on megakaryocyte colony formation,[1],greatly inhibited in each of the experiments
same,mean inhibition of megakaryocyte colony formation,[1],~ 78%
same,dependence of colony suppressive effect on T lymphocytes,[2],indifferent to the presence of T lymphocytes
same,effect on colony formation in presence of CD4+ (helper) cells,[2]; PF4 2.5 μg/ml,unchanged
same,megakaryocyte colonies enumerated (mean ± SEM),"[2]; Study 1, C/T4 2:1 + PF4 2.5 μg/ml, control 7 ± 2, C/T4 alone 11 ± 0",8 ± 1 colonies
same,megakaryocyte colonies enumerated (mean ± SEM),"[2]; Study 1, C/T8 2:1 + PF4 2.5 μg/ml, control 7 ± 2, C/T8 alone 6 ± 1",18 ± 2 colonies
same,megakaryocyte colonies enumerated (mean ± SEM),"[2]; Study 2, C/T4 2:1 + PF4 2.5 μg/ml, control 4 ± 1, C/T4 alone 3 ± 1",5 ± 1 colonies
same,megakaryocyte colonies enumerated (mean ± SEM),"[2]; Study 3, C/T8 2:1 + PF4 2.5 μg/ml, control 11 ± 3",7 ± 2 colonies
same,megakaryocyte colonies enumerated (mean ± SEM),"[2]; Study 3, C/T8 2:1 + PF4 25 μg/ml, control 11 ± 3, p < .05",1 ± 0 colonies
same,megakaryocyte colonies enumerated (mean ± SEM),"[2]; Study 4, C/T4 2:1 + PF4 2.5 μg/ml, control 116 ± 6, C/T4 alone 141 ± 22",122 ± 29 colonies
same,megakaryocyte colonies enumerated (mean ± SEM),"[2]; Study 4, C/T4 2:1 + PF4 25 μg/ml, control 116 ± 6, C/T4 alone 141 ± 22, p < .05",8 ± 1 colonies
same,megakaryocyte colonies enumerated (mean ± SEM),"[2]; Study 4, C/T8 2:1 + PF4 2.5 μg/ml, control 116 ± 6, C/T8 alone 163 ± 13, p < .05",87 ± 15 colonies
same,megakaryocyte colonies enumerated (mean ± SEM),"[2]; Study 4, C/T8 2:1 + PF4 25 μg/ml, control 116 ± 6, C/T8 alone 163 ± 13, p < .05",13 ± 2 colonies
same,megakaryocyte colonies enumerated (mean ± SEM),"[2]; Study 5, C/T4 2:1 + PF4 25 μg/ml, control 33 ± 6, C/T4 alone 39 ± 4, p < .05",3 ± 1 colonies
same,megakaryocyte colonies enumerated (mean ± SEM),"[2]; Study 5, C/T8 2:1 + PF4 2.5 μg/ml, control 33 ± 6",33 ± 4 colonies
same,megakaryocyte colonies enumerated (mean ± SEM),"[2]; Study 5, C/T8 2:1 + PF4 25 μg/ml, control 33 ± 6, p < .05",3 ± 1 colonies
same,effect on colony formation in presence of T cells,[2]; high concentration of PF4,highly significant decrease in colony formation
same,megakaryocyte colonies enumerated,"[3]; PF4 2.5 μg/ml, not significant (p>0.05), aggregate of five experiments",~ 7 colonies per 2×105 MNC plated
same,megakaryocyte colonies enumerated,"[3]; PF4 25 μg/ml, p<0.007, aggregate of five experiments",five
same,inhibition of erythroid colony formation units (CFU-E),[4],no inhibition
